B1: 1TEL-GSGG-UBA (other, human)
chain: IRLPAHLRLQPIYWSRDDVAQWLKWAENEFSLSPIDSNTFEMNGKALLLLTKEDFRYRSPHSGDELYELLQHILGSGGELQRKIMEVELSVHGVTHQEAQTALGATGGDVVSAIRNLKVDQLFHLSSRSRADAWRILEHYQWDLSAASRYVLARP
B2: 1TEL-GG-UBA (other, human)
chain: IRLPAHLRLQPIYWSRDDVAQWLKWAENEFSLSPIDSNTFEMNGKALLLLTKEDFRYRSPHSGDELYELLQHILGGELQRKIMEVELSVHGVTHQEAQTALGATGGDVVSAIRNLKVDQLFHLSSRSRADAWRILEHYQWDLSAASRYVLARP

Tests used:
[1] = target: 1TEL-GG-UBA as run in size exclusion chromatography with ubiquitin (human) (UniProt P41212); experiment: SEC
crystal structure = target: the molecule itself; experiment: crystal structure

Molecule	percent binding [1] [%]	binding result (crystal structure)
M1-linked-di-ubiquitin (from UniProt P0CG47 1-76; P0CG47 1-76) (natural protein)	100	
M1-linked-tetra-ubiquitin (from UniProt P0CG47 1-76; P0CG47 1-76; P0CG47 1-76; P0CG47 1-76) (natural protein)	100	
M1-linked-tri-ubiquitin (from UniProt P0CG47 1-76; P0CG47 1-76; P0CG47 1-76) (natural protein)	100	
B1		binds
B2		binds

From publication PMC10843481 (Structure (London, England : 1993), 2023)
